Laboratory results published in patent US20060142223A1.

Biological target: human F0F1-ATP synthase (complex V) (human)
Assay: cell-based or functional assay

B1: mature CrATP6F polypeptide (Chlamydomonas reinhardtii ATPase 6 subunit of F0F1-ATP synthase with C-terminal FLAG epitope tag, after cleavage of the … (protein)
chain: STAAQVQSGATVNSLLLGIYRFWRSQAPMDKPHAPVDDRMLPAIVDASDNRAALGTWATALFCTILASNLLGLVPTNEAPTSGLGFATGLGVSVWATATTLGLYKLGFSFPGHFIPGGTPWPMAFIFVPLETISYTFRAVSLGVRLWVNMLAGHTLLHILTGMALALPFSLSFFAMVPATFAVACLLSALVGLEYLVAVLQSGVFSILSTVYVGEFNSVKLAGPLAKVVKKALDYKDDDDK
B1 gave a mitochondrial (oligomycin-sensitive) ATP synthesis in mutant (8993G) cybrids stably transfected with pCrA6F, against untransfected mutant cybrids of 75%.
